Data as given in patent publication US20120021995A1 (published 2012).
Positions count from the first letter of the chain named.

B1: 29p61P1E11 (designed binder)
chain: EPPTQKPKKIVNAKKDVVNTKMFEELKSRLDTLAQEVALLKEQQALQTVCLKGTKVHMKCFLAFTQTKTFHEASEDCISRGGTLSTPQTGSENDALYEYLRQSVGNEAEIWLGLNGWLEGVGWVDMTGARIAYKNWETEITAQPDGGWPFSNENCAVLSGAANGKWFDKRCRDQLPYICQFGIV
notes: ATRIMER; also called 029-61.1E11
B2: 119p94P1G7 (designed binder)
chain: B1 chain with E137G, T138W, E139S, I140A, T141R, A142V
notes: ATRIMER from pANA19
B3: 029-15.A8G (designed binder)
chain: EPPTQKPKKIVNAKKDVVNTKMFEELKSRLDTLAQEVALLKEQQALQTVCLKGTKVHMKCFLAFTQTKTFHEASEDCISRGGTLSTPQTGSENDALYEYLRQSVGNEAEIWLGLNRAWLRPRWVDMTGARIAYKNWETEITAQPDGGTLVSGENCAVLSGAANGKWFDKRCRDQLPYICQFGIV
notes: ATRIMER; also called 1a7b
B4: 029-15.A1H (designed binder)
chain: B3 chain with W118V, T148W, L149V, V150L, S151G, E153K
notes: ATRIMER; also called 8b6b
B5: 029-15.A3C (designed binder)
chain: EPPTQKPKKIVNAKKDVVNTKMFEELKSRLDTLAQEVALLKEQQALQTVCLKGTKVHMKCFLAFTQTKTFHEASEDCISRGGTLSTPQTGSENDALYEYLRQSVGNEAEIWLGLNRATLRPRWVDMTGARIAYKNWETEITAQPDGGKNCAVLSGAANGKWFDKRCRDQLPYICQFGIV
notes: ATRIMER; also called 4a8c
B6: 71p88P1B3 (designed binder)
chain: B1 chain with V121S, W148V, P149Q, F150W, S151R, N152W
B7: 71p88P1G4 (designed binder)
chain: B1 chain with W117Y, L118M, E119T, W148R, P149S, F150W, S151K, N152W
B8: 71p88P1G1 (designed binder)
chain: B1 chain with L118M, W148P, F150W, S151R, N152W
B9: 71p88P1A3 (designed binder)
chain: B1 chain with W117Y, E119A, V121T, W148R, P149V, F150L, S151A, N152W
B10: 71p88P1F2 (designed binder)
chain: B1 chain with V121S, W148F, F150A, S151R, N152W

The molecules below were run against T1, DR4 (TRAIL-R1) on cancer cells (human, UniProt O00220 24-468) (assay: cell-based or functional assay).
T1 sequence: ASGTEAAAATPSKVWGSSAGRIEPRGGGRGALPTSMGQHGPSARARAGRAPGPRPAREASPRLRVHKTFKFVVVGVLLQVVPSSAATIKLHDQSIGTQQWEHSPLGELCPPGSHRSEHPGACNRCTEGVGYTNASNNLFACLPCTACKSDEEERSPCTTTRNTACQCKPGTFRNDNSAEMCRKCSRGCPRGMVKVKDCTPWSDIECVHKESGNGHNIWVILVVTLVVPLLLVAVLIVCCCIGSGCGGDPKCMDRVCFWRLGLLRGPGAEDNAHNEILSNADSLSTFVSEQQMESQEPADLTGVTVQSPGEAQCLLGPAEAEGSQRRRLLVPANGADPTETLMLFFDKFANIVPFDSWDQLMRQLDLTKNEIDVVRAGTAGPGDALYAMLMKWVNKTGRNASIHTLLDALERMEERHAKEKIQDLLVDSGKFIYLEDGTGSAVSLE

| Molecule | ED50 (nM) ST486 (cell killing) [nM] |
| --- | --- |
| B1 | 217 |
| B2 | 25.5 |

These molecules were tested against T2, recombinant human TRAIL R1 (DR4)/Fc chimera (human, UniProt O00220 24-239) (assay: SPR (Biacore), ATRIMER).
T2 construct: bought (R&D Systems); not shown: Fc of the bought chimera (R&D Systems)
T2 sequence: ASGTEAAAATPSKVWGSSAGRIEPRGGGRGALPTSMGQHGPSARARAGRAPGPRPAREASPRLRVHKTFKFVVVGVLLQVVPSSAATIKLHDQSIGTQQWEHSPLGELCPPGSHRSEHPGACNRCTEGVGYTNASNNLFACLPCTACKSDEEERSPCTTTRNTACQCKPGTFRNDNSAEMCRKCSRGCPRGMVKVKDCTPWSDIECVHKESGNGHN
Method: (§1) Immobilization of an anti-human IgG Fc antibody (Biacore) to the CM5 chip (Biacore) was performed using standard amine coupling chemistry and this surface was used to capture recombinant human DR4 or DR5 receptor Fc fusion protein (R&D Systems). ATRIMER™ dilutions (1-500 nM) were injected over the DR4 and DR5 receptor surface at 30 μl/min and kinetic constants were derived from the sensorgram data using the Biaevaluation software (version 3.1, Biacore). Data collection was 3 minutes for the association and 5 minutes for dissociation. The anti-human IgG surface was regenerated with a 30 s pulse of 3 M magnesium chloride. All sensorgrams were double-referenced against an activated and blocked flow-cell as well as buffer injections.
Clones were then sub-cloned into pANA19 for expression and purification as described above. Cell killing activity was measured as described above, and binding affinity was measured by Biacore.

| Molecule | Kd [nM] | koff [s⁻¹] | kon [M⁻¹ s⁻¹] |
| --- | --- | --- | --- |
| B1 | 3.2 | 0.000302 | 93800 |
| B2 | 2.41 | 0.0007 | 349000 |

Each molecule was assayed against T3, recombinant human TRAIL R2 (DR5)/Fc chimera (human, UniProt O14763 54-182) (assay: SPR (Biacore), DR5-Fc captured by anti-Fc, ATRIMER analyte; apparent).
T3 construct: bought (R&D Systems); not shown: Fc of the bought chimera (R&D Systems)
Method: as §1

| Molecule | Ka [M⁻¹] | Kd [nM] | koff [s⁻¹] | kon [M⁻¹ s⁻¹] |
| --- | --- | --- | --- | --- |
| B3 | 6.43e+07 | 15.6 | 0.000629 | 40500 |
| B4 | 2.56e+07 | 39.1 | 0.000506 | 12900 |
| B5 | 1.74e+08 | 5.74 | 0.000362 | 63000 |

The molecules below were run against DR5 (TRAIL-R2) on cancer cells (human, UniProt O14763 56-440) (assay: cell-based or functional assay).

| Molecule | % cell death of H2122 and A2780 cells, 20 µg/mL, 20 h [%] |
| --- | --- |
| B3 | > 50 |
| B4 | > 50 |
| B5 | > 50 |

Target: T1, DR4 (TRAIL-R1) on cancer cells
Assay: cell-based or functional assay
Remark: another data set of the same source

| Molecule | ED50 ST486 (cell killing) [nM] |
| --- | --- |
| B1 | 217 |
| B6 | 3.2 |
| B7 | 75 |
| B8 | 80 |
| B9 | 170 |
| B10 | 168 |

Target: T1, DR4 (TRAIL-R1) on cancer cells
Assay: cell-based or functional assay
Remark: another data set of the same source

| Molecule | EC50 Colo205 (cell killing) [nM] | EC50 ST486 (cell killing) [nM] |
| --- | --- | --- |
| rhTRAIL-His (from UniProt P50591 95-281) (ligand) | 0.06 | 0.06 |

Target: T1, DR4 (TRAIL-R1) on cancer cells
Assay: cell-based or functional assay
Remark: another data set of the same source

| Molecule | Colo205 % killing (% of TRAIL activity) [%] | H2122 % killing (% of TRAIL activity) [%] | ST486 % killing (% of TRAIL activity) [%] |
| --- | --- | --- | --- |
| B6 | 42 | 0 | 88 |
| B7 | 24 | 5 | 75 |
| B8 | 12 | 0 | 78 |
| B9 | -7 | -3 | 41 |
| B10 | -18 | -5 | 58 |
